In publication doi:10.1101/568972v1 (biorxiv, 2019):

Legend:
[1] = molecular target: T1, AceKMs (Mycolicibacterium smegmatis, UniProt A0QQK1); assay: HPLC of ATP/ADP, steady-state kinetics; type: biochemical; settings: read-out: KM (substrate); ADP in excess; 10 mM MgCl2, pH 9.0, room temperature
T1 sequence (A0QQK1 1-376): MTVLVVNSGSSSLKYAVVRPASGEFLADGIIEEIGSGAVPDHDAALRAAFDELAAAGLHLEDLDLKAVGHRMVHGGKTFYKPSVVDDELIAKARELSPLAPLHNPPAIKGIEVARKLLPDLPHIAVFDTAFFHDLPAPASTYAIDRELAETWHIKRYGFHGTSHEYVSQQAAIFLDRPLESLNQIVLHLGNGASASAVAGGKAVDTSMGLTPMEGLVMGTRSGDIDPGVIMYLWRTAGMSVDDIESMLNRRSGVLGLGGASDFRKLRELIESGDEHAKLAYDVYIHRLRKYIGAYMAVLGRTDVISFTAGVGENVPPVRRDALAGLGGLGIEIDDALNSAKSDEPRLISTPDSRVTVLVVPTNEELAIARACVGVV

[2] = substrate: O=C(CO)COP(=O)(O)O; assay: purified protein; settings: acceptor aldehyde not stated; 'DHAP' printed as table sub-heading
[3] = substrate: NC(=O)c1ccc[n+]([C@@H]2O[C@H](COP(=O)(O)OP(=O)(O)OC[C@H]3O[C@@H](n4cnc5c(N)ncnc54)[C@H](O)[C@@H]3O)[C@@H](O)[C@H]2O)c1; assay: purified protein, by the assay type
[4] = substrate: O=P(O)(O)OC[C@H](O)CO; assay: purified protein, by the assay type
[5] = substrate: O=P(O)(O)OC[C@H](O)CO; assay: purified protein; settings: NAD+ co-substrate, 50 mM sodium phosphate pH 9.0, ambient temperature
[6] = substrate: OCC(O)CO; assay: purified protein, by the assay type; settings: pH 9.0
[7] = substrate: OCC(O)CO; assay: purified protein; type: biochemical, Thermococcus kodakarensis; settings: ATP in excess, 10 mM MgCl2, 50 mM NaHCO3 pH 9.0, room temperature
[8] = substrate: NC(=O)C1=CN([C@@H]2O[C@H](COP(=O)(O)OP(=O)(O)OC[C@H]3O[C@@H](n4cnc5c(N)ncnc54)[C@H](O)[C@@H]3O)[C@@H](O)[C@H]2O)C=CC1; assay: purified protein; settings: O2, 50 mM sodium phosphate pH 7, 1 mg/mL BSA, ambient temperature
[9] = substrate: Nc1ncnc2c1ncn2[C@@H]1O[C@H](COP(=O)(O)OP(=O)(O)O)[C@@H](O)[C@H]1O; assay: purified protein, by the assay type

In the case of CC(=O)OP(=O)(O)O [acetyl phosphate], the Km [1] is reported as 390 ± 8 µM.

B1: FruASc (Staphylococcus carnosus subsp. carnosus TM300) (protein)
chain: NQEQFDKIKNGKGFIAALDQSGGSTPKALKDYGVEENEYSNDEEMFNLVHDMRTRIITSPAFNGEKILGAILFEQTMDREVEGKYTGSYLADKGIVPFLKVDKGLAEEADGVQLMKPIPDLDKLLDRANERGIFGTKMRSNILENNKEAIEKVVKQQFEVAKEIIAAGLVPIIEPEVNINAKDKEAIEANLAEAIKAELDNLKKDQYVMLKLTIPTKVNAYSELIEHPQVIRVVALSGGYSRDEANKILKQNDGLIASFSRALVSDLNAQQSDAEFNEKLQEAIDTIFDASVNKA
With B1 the Km [2] was 500 ± 80 µM and the kcat [2] was 16 ± 2 s⁻¹.

B2: G3PDEc-NOXCa-Est2Aa (Escherichia coli K-12) (protein)
chain: MNQRNASMTVIGAGSYGTALAITLARNGHEVVLWGHDPEHIATLERDRCNAAFLPDVPFPDTLHLESDLATALAASRNILVVVPSHVFGEVLRQIKPLMRPDARLVWATKGLEAETGRLLQDVAREALGDQIPLAVISGPTFAKELAAGLPTAISLASTDQTFADDLQQLLHCGKSFRVYSNPDFIGVQLGGAVKNVIAIGAGMSDGIGFGANARTALITRGLAEMSRLGAALGADPATFMGMAGLGDLVLTCTDNQSRNRRFGMMLGQGMDVQSAQEKIGQVVEGYRNTKEVRELAHRFGVEMPITEEIYQVLYCGKNAREAALTLLGRARKDERSSH
With B2 the Km [3] was 164 ± 10 µM, the Km [4] was 659 ± 47 µM and the kcat [4] was 7 ± 0.6 s⁻¹. For the same molecule, the kcat/Km [4] was 11000 M⁻¹ s⁻¹.

B3: G3PDEc (Escherichia coli K-12) (protein)
chain: MNQRNASMTVIGAGSYGTALAITLARNGHEVVLWGHDPEHIATLERDRCNAAFLPDVPFPDTLHLESDLATALAASRNILVVVPSHVFGEVLRQIKPLMRPDARLVWATKGLEAETGRLLQDVAREALGDQIPLAVISGPTFAKELAAGLPTAISLASTDQTFADDLQQLLHCGKSFRVYSNPDFIGVQLGGAVKNVIAIGAGMSDGIGFGANARTALITRGLAEMSRLGAALGADPATFMGMAGLGDLVLTCTDNQSRNRRFGMMLGQGMDVQSAQEKIGQVVEGYRNTKEVRELAHRFGVEMPITEEIYQVLYCGKNAREAALTLLGRARKDERSSH
B3 showed a Km [5] of 59 ± 4 µM and a kcat [5] of 85 ± 11 s⁻¹.

B4: GlpKTK-AceKMs-Est2Aa (Thermococcus kodakarensis KOD1) (protein)
chain: MEKFVLSLDEGTTSARAIIFDRESNIHGIGQYEFPQHYPRPGWVEHNPEEIWDAQLRAIKDAIQSARIEPNQIAAIGVTNQRETTLVWDKDGKPLYNAIVWQCRRTAEMVEEIKREYGTMIKEKTGLVPDAYFSASKLKWLLDNVPGLREKAEKGEVMFGTVDTFLIYRLTGEHVTDYSNASRTMLFNIKKLDWDDELLELFDIPESVLPEVRESSEVYGYTKKELLGAEIPVSGDAGDQQAALFGQAAFEAGMVKATYGTGSFILVNTDKMVLYSDNLLTTIAWGLNGRVSYALEGSIFVTGAAVQWLRDGIKIIKHASETEELATKLESNEGVYFVPAFVGLGAPYWDQFARGIIIGITRGTGREHLARATLEAIAYLTRDVVDEMEKLVQIKELRVDGGATANDFLMQFQADILNRKVIRPVVKETTALGAAYLAGLAVDYWADTREIAELWKAERIFEPKMDEKTRERLYKGWKEAVKRAMGWAKVVDSAKSN
Work on B4 yielded a Km [6] of 16 ± 4 µM, a kcat [6] of 1400 ± 54 s⁻¹ and a kcat/Km [6] of 8.6e+07 M⁻¹ s⁻¹.

B5: GlpKTk (Thermococcus kodakarensis KOD1) (protein)
chain: MEKFVLSLDEGTTSARAIIFDRESNIHGIGQYEFPQHYPRPGWVEHNPEEIWDAQLRAIKDAIQSARIEPNQIAAIGVTNQRETTLVWDKDGKPLYNAIVWQCRRTAEMVEEIKREYGTMIKEKTGLVPDAYFSASKLKWLLDNVPGLREKAEKGEVMFGTVDTFLIYRLTGEHVTDYSNASRTMLFNIKKLDWDDELLELFDIPESVLPEVRESSEVYGYTKKELLGAEIPVSGDAGDQQAALFGQAAFEAGMVKATYGTGSFILVNTDKMVLYSDNLLTTIAWGLNGRVSYALEGSIFVTGAAVQWLRDGIKIIKHASETEELATKLESNEGVYFVPAFVGLGAPYWDQFARGIIIGITRGTGREHLARATLEAIAYLTRDVVDEMEKLVQIKELRVDGGATANDFLMQFQADILNRKVIRPVVKETTALGAAYLAGLAVDYWADTREIAELWKAERIFEPKMDEKTRERLYKGWKEAVKRAMGWAKVVDSAKSN
B5 showed a Km [7] of 15 ± 2 µM and a kcat [7] of 940 ± 8 s⁻¹.

B6: NoxCa (Anaerocolumna aminovalerica) (protein)
chain: MKIVVIGCTHAGTAAVKTILKENPEAEITIFERNDNISFLSCGIALYVGGVVKDPAGLFYSNPEELSKMGANVKIKHNVKSIDTKSKKVIAEDMNTGEEIEVSYDKLVNTTGSWPIIPPIPGIESKNILLCKNYDQANVIIRQTKDAKKIVIVGGGYIGIELVEAFQKSGKQVTLIDGLDRILNKYLDKEFTDILEDDLKKNGINLALDQCVKSFKANENGEVTSVETTKGEYEADMVILCVGFRPNNELLKGKVDMLPNDAIIVDEYMRTSDPDIFAAGDSCAVHYNPNGNYAYIPLATNAVRMGMLIGKNISTPKVKYRGTQSTSGLNLFGYNIGSTGVTVSGAPQIGLNVRSVIVKDNYRPEFMPTNEEIIMQLVYEVGTNRIVGGQVMSKYDITQSANTLSLAIQNKMTIEDLAYVDFFFQPHFDRPWNYLNILGLAALEQEGL
For B6, the Km [8] was 258 ± 21 µM and the kcat [8] was 1,252 ± 182 s-1.

B7: GlpKTk-AceKMs-Est2Aa (Mycolicibacterium smegmatis MC2 155) (protein)
chain: MTVLVVNSGSSSLKYAVVRPASGEFLADGIIEEIGSGAVPDHDAALRAAFDELAAAGLHLEDLDLKAVGHRMVHGGKTFYKPSVVDDELIAKARELSPLAPLHNPPAIKGIEVARKLLPDLPHIAVFDTAFFHDLPAPASTYAIDRELAETWHIKRYGFHGTSHEYVSQQAAIFLDRPLESLNQIVLHLGNGASASAVAGGKAVDTSMGLTPMEGLVMGTRSGDIDPGVIMYLWRTAGMSVDDIESMLNRRSGVLGLGGASDFRKLRELIESGDEHAKLAYDVYIHRLRKYIGAYMAVLGRTDVISFTAGVGENVPPVRRDALAGLGGLGIEIDDALNSAKSDEPRLISTPDSRVTVLVVPTNEELAIARACVGVV
B7 gave a Km [9] of 398 ± 29 µM.
